Results reported in patent US11787839B2, “Targeting α2δ-1-bound glutamate receptors for treating diseases and disorders” (Board of Regents, The University of Texas System, priority 2017, dated 2023).

Columns and labels:
[1] = target: T1, α2δ-1 and NMDAR subunits in spinal cord synaptosomes (Rattus norvegicus, UniProt P35439+Q00959+Q00960); assay: Protein levels in spinal cord synaptosomes of treated slices (SNL, sham); format: cell-based; details: slices treated 30 min
T1 construct: from tissue; host or cells: rat lumbar spinal cord slices (lamina II neurons) and synaptosomes made from them
Description: PSD-95, a known postsynaptic protein, was used as an internal control.
Spinal cord synaptosome preparation: The spinal cord slices were pooled from 2 rats and were homogenized using glass-Teflon homogenizer in 10 volumes of ice-cold HEPES-buffered sucrose (0.32 M sucrose, 1 mM EGTA, and 4 mM HEPES at pH 7.4) containing the protease inhibitor cocktail (Sigma-Aldrich). The homogenate was centrifuged at 1,000×g for 10 min at 4° C. to remove the nuclei and large debris. […] The synaptosomal pellet was lysed via hypo-osmotic shock in 9 volumes of ice-cold HEPES-buffer with the protease inhibitor cocktail for 30 min. The lysate was centrifuged at 25,000×g for 20 min at 4° C. to obtain the synaptosomal membrane fraction, which was then dissolved in sodium dodecyl sulfate sample buffer at a final concentration of 0.25 μg/μl for immunoblotting. […] The α2δ-1Tat peptide and scrambled control peptide were synthesized by Bio Basic Inc. (Marham, Ontario, Canada) and validated by using liquid chromatography and mass spectrometry.

[2] = target: T2, NMDARs of hippocampal CA1 pyramidal neurons (Mus musculus, UniProt O08532+P35438); assay: Puff NMDAR currents of hippocampal CA1 neurons, oxygen-glucose deprivation (OGD); format: cell-based; details: 5 min OGD; gabapentin 30 or 100 μM, peptides 1 μM, 60 min
T2 construct: from tissue; host or cells: mouse brain slices (hippocampal CA1, hypothalamic PVN, brain tissue membrane extracts)
T2 sequence (O08532 25-956 limits assumed, other chains not shown): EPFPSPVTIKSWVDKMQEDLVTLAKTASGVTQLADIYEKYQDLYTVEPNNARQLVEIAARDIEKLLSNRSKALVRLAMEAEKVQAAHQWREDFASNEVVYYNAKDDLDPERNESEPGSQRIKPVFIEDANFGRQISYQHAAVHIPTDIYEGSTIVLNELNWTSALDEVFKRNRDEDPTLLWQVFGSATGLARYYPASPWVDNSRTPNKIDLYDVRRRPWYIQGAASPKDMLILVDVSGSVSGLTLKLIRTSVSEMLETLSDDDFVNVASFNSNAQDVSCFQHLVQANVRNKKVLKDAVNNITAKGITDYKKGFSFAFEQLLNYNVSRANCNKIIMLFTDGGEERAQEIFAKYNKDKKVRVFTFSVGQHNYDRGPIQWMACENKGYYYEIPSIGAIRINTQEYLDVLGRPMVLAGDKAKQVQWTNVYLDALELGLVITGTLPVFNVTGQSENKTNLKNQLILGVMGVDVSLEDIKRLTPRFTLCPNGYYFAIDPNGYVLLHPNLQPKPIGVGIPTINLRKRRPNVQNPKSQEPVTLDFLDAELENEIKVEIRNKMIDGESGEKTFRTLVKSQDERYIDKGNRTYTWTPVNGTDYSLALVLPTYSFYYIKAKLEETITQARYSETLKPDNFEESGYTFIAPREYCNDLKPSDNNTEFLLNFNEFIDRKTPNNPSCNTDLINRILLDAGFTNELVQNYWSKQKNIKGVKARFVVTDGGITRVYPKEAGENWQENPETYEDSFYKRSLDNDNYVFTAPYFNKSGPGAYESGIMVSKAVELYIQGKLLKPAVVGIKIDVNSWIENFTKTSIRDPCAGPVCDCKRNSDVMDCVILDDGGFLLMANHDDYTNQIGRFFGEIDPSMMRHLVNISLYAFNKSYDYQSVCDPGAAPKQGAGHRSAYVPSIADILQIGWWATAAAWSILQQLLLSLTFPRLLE
Description: Brain slice preparation and recording. The tissues containing the hippocampus were sliced sagittally (300 μm thick) using a vibratome. […] NMDAR currents of pyramidal neurons in the hippocampal CA1 region were recorded by puff application of 100 μM NMDA directly to the recorded neuron at a holding potential of −60 mV.

[3] = target: T3, NMDARs of spinally projecting PVN neurons (Rattus norvegicus, UniProt P35439+Q00959+Q00960); assay: Recordings of spinally projecting PVN neurons in rat brain slices (Ang II); format: cell-based; details: losartan 2 μmol/L, pregabalin 20 μmol/L, peptides 1 μmol/L
T3 construct: from tissue; host or cells: rat hypothalamic slices containing the PVN (Sprague-Dawley, WKY, SHR) and synaptosomes made from them
Excerpt: Retrograde labeling of spinally projecting PVN neurons: Rats or mice were anesthetized with 2-3% isoflurane, and their spinal cords at the T1-T4 level were exposed through dorsal laminectomy. A fluorescent microsphere suspension (FluoSpheres, 0.04 μm; Molecular Probes, Invitrogen, Eugene, Oreg.) was pressure ejected (Nanoject II Microinjectors, Drummond Scientific Company, Broomall, Pa.) bilaterally into the IML region of the spinal cord in six separate 50-nl injections using a glass micropipette (tip diameter, 20-30 μm). […] The wound was closed with sutures after injection. Animals were returned to their cages for 4-7 days, which was sufficient time to permit the tracer to be retrogradely transported to the PVN. The animals were inspected daily for motor activity, signs of infection, and food and water intake.
Brain slice preparation: Four to seven days after fluorescent tracer injection, the animals were anesthetized with isoflurane and rapidly decapitated. […] Coronal slices (thickness, 300 μm) containing the PVN were cut from the tissue block in the ice-cold aCSF. […] The brain slices were placed in a glass-bottom chamber and continuously perfused with aCSF at 3.0 ml/min at 34° C. maintained by an inline solution heater and temperature controller.
The labeled PVN neurons were briefly identified with the aid of epifluorescence illumination, and whole-cell recordings from labeled PVN neurons were performed under differential interference contrast optics on an upright microscope (BX50 WI; Olympus Optical, Tokyo, Japan). Recordings of postsynaptic currents began 5 min after the whole-cell access was established and the current reached a steady state.
Signals were processed with an […] amplifier (Axon Instruments, Foster City, Calif.). A liquid junction potential of 15 mV (for the potassium gluconate pipette solution) was corrected during off-line analysis.
Postsynaptic NMDAR currents were elicited by puff application of 100 μmol/L NMDA to the recorded neuron using a positive pressure system (4 p.s.i., 50 ms; Toohey Company, Fairfield, N.J.). The tip of the puff pipette was placed 150 μm from the recorded neuron. […] The NMDAR current data presented in the manuscript were the average of 3 consecutive currents elicited by repeated puff NMDA. The neuron was discarded if the current was not stable.
Ang II, losartan, and NMDA were obtained from Sigma (St. Louis, Mo.). The α2δ-1Tat peptide and scrambled control peptide were synthesized by Bio Basic Inc. (Markham, Ontario, Canada) and validated by liquid chromatography and mass spectrometry. […] All drugs were prepared immediately before the experiments and applied to the slice chamber. The brain slices were first pretreated with Ang II, losartan, α2δ-1Tat peptide, or control peptide in the slice incubation chamber before recording. For electrophysiological recording, the treatment agents were immediately removed and the brain slice transferred to a separate recording chamber.

anesthetized rats = assay: PVN microinjection and recording of RSNA and ABP (Ang II); format: in vivo, rat; details: peptides 100 μmol/L, 50 nl
Description: PVN microinjection and recording of renal sympathetic nerve activity: Rats were anesthetized with a mixture of α-chloralose (60 mg/kg, i.p.) and urethane (800 mg/kg, i.p.). A retroperitoneal incision was made, and a branch of the left renal postganglionic sympathetic nerve was isolated under a surgical microscope. The renal sympathetic nerve was cut distally to ensure that afferent nerve activity was not recorded. The renal sympathetic nerve activity (RSNA), arterial blood pressure (ABP), and heart rate (HR) were recorded using a 1401-PLUS analog-to-digital converter and Spike2 system (Cambridge Electronic Design, Cambridge, UK). A microinjection pipette (tip diameter, 20-30 μm) was advanced into the PVN according to the following stereotactic coordinates: 1.6-2.0 mm caudal to the bregma, 0.5 mm lateral to the midline, and 7.0-7.5 mm ventral to the dura. The microinjection was done using a calibrated microinjection system (Nanoject II; Drummond Scientific) and monitored using a surgical microscope as described previously (Li and Pan, 2006, 2007; Qiao et al., 2017). Ang II (200 μmol/L, 50 nl) was microinjected into the PVN to observe the change in RSNA and ABP in the absence or presence of α2δ-1Tat peptide (100 μmol/L, 50 nl) or control peptide (100 μmol/L, 50 nl). The microinjections were separated by 10- to 15-min intervals to allow recovery of the response. To determine the location of the injection site and diffusion of the drugs in the PVN, 5% rhodamine-labeled fluorescent microspheres (0.04 μm; Molecular Probes) were included in the injection solution (Li and Pan, 2006, 2007; Qiao et al., 2017).

[4] = target: T4, presynaptic NMDARs of spinal dorsal horn neurons (Rattus norvegicus, UniProt P35439+Q00959+Q00960); assay: Spinal cord slice recordings, morphine-treated rats; format: cell-based; details: AP5 50 μM, gabapentin 100 μM, peptides 1 μM for 60 min
T4 construct: from tissue; host or cells: rat lumbar spinal cord slices (lamina II neurons) and synaptosomes made from them
Description: Spinal cord slice preparation and electrophysiological recordings: The lumbar spinal cord was rapidly removed through laminectomy from the animals anesthetized with isoflurane. […] The spinal cord tissue was then placed in a shallow groove formed in an agar block and glued onto the stage of a vibratome (Leica, Germany).
All signals were recorded using an amplifier (MultiClamp700B; Axon Instruments Inc., Union City, Calif.), filtered at 1-2 kHz, and digitized at 10 kHz.

[5] = target: T5, NMDARs of RVLM-projecting PVN neurons (Rattus norvegicus, UniProt P35439+Q00959+Q00960); assay: Recordings of RVLM-projecting PVN neurons in slices of WKY rats and SHRs; format: cell-based
T5 construct: from tissue; host or cells: rat hypothalamic slices containing the PVN (Sprague-Dawley, WKY, SHR) and synaptosomes made from them
T5 sequence (Q00959 20-1464 limits assumed, other chains not shown): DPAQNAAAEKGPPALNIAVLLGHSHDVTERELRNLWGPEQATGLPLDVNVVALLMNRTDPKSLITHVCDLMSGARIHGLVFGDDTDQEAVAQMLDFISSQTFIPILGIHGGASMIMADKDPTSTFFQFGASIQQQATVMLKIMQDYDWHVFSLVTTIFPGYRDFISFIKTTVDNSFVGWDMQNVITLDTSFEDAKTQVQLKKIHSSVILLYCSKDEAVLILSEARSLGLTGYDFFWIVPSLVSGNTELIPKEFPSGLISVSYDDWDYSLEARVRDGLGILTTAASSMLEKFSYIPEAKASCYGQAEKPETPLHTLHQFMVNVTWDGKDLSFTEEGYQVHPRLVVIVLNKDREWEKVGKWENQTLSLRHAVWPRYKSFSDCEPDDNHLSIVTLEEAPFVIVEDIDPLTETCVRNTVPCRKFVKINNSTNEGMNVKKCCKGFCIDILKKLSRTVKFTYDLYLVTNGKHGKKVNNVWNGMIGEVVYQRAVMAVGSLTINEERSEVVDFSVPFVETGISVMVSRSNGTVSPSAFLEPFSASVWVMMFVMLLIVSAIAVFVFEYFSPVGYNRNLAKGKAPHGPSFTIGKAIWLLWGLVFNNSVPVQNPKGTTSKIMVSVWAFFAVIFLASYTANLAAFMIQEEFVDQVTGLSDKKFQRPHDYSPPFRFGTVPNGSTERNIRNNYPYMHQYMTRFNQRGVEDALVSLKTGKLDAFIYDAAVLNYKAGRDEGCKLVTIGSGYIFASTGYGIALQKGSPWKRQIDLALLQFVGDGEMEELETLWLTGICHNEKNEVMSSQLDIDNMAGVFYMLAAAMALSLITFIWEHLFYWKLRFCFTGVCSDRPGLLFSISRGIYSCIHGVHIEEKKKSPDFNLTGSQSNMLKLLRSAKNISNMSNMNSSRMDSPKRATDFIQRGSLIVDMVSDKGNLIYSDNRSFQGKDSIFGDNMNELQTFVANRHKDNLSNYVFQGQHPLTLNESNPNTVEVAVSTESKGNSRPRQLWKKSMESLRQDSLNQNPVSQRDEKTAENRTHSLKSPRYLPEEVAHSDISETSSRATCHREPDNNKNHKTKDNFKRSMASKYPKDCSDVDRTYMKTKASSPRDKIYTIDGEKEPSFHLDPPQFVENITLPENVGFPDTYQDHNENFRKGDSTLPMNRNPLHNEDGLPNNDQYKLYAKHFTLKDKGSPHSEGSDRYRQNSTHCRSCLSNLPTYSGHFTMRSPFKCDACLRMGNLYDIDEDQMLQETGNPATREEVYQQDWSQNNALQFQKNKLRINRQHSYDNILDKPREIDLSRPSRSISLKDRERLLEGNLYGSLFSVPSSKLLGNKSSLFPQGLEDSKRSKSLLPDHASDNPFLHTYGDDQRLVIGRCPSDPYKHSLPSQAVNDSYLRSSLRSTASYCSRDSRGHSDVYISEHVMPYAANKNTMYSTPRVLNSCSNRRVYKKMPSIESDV
T5 sequence (Q00960 27-1482, other chains not shown): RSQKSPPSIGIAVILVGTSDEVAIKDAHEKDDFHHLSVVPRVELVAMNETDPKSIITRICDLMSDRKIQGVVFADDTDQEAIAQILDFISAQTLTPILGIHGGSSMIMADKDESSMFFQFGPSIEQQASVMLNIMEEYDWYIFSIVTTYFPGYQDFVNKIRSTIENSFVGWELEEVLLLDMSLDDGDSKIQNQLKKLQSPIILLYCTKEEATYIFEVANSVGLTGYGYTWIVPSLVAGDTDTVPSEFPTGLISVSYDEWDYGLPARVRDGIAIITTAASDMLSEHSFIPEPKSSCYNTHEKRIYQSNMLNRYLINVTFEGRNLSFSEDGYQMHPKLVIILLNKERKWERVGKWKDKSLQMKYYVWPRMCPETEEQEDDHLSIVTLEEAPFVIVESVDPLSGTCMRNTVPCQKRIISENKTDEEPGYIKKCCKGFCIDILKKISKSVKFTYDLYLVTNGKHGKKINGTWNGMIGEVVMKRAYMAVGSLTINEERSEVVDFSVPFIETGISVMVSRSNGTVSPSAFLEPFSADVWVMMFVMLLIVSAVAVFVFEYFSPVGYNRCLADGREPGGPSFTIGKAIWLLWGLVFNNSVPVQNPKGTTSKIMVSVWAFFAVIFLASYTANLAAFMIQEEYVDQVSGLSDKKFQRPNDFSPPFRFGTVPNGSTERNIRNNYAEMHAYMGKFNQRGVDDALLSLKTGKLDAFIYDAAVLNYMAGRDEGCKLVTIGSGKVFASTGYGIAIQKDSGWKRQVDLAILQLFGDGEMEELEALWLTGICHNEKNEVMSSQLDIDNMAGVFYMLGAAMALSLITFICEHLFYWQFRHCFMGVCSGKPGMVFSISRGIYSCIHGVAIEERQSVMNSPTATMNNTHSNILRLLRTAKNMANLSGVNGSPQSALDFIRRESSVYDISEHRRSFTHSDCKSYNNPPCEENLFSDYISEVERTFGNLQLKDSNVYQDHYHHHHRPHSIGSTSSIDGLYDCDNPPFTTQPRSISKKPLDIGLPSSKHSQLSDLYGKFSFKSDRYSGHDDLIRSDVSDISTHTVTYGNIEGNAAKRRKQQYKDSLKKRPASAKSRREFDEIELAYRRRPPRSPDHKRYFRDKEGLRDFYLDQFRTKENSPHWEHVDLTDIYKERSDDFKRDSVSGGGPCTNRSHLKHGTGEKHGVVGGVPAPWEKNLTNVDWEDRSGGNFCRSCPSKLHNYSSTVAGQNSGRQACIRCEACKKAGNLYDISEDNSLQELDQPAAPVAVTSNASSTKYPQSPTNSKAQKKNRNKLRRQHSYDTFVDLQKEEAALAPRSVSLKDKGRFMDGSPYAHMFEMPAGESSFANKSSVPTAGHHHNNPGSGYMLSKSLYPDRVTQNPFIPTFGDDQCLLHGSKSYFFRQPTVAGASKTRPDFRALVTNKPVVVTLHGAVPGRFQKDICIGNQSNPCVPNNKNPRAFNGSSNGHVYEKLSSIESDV

[6] = target: presynaptic NMDARs of spinal lamina II neurons (Rattus norvegicus, UniProt P35439+Q00959+Q00960)
[7] = paclitaxel-treated rats, AP5 50 μM, pregabalin 20 μM, peptides 1 μM
[8] = vehicle-treated rats, AP5 50 μM, pregabalin 20 μM, peptides 1 μM

FGLGWQPWSLSFYLVWSGLILSVLHLIRSN (Control peptide)
increased protein levels of GluN1, GluN2A, GluN2B and α2δ-1 in spinal cord synaptosomes ([1]; SNL rats): had no such effects | protein levels of GluN1, GluN2A, GluN2B and α2δ-1 in spinal cord synaptosomes ([1]; sham rats): had no such effects | OGD-induced increase in the puff NMDAR currents [2]: did not alter | effect of Ang II on mEPSC frequency in pretreated slices [3]: did not affect | effect of Ang II on puff NMDA currents in pretreated slices ([3]; 30 min): significantly increased | ABP and RSNA responses to Ang II after prior peptide microinjection into the PVN (anesthetized rats): not altered | amplitude of monosynaptic evoked EPSCs [4]: did not affect | puff NMDA currents of labelled PVN neurons ([5]; SHRs): had no effect | ratio of NMDAR-EPSCs to AMPAR-EPSCs ([5]; SHRs): did not affect | baseline frequency of mEPSCs of labelled PVN neurons ([5]; SHRs, AP5 50 μmol L-1, gabapentin 100 μmol L-1, peptides 1 μmol L-1, 60 min): had no effect | amplitude of evoked NMDAR-EPSCs of labelled PVN neurons ([5]; SHRs, gabapentin 100 μmol L-1, peptides 1 μmol L-1, 60 min): did not affect | amplitude of puff NMDA currents ([5]; WKY rats): had no effect | frequency or amplitude of mEPSCs of labelled PVN neurons ([5]; WKY rats): had no effect | ratio of NMDAR-EPSCs to AMPAR-EPSCs ([5]; WKY rats): did not affect | amplitude of evoked AMPAR-EPSCs of labelled PVN neurons ([5]; WKY rats or SHRs): did not affect | amplitude of evoked NMDAR-EPSCs of labelled PVN neurons ([5]; WKY rats, gabapentin 100 μmol L-1, peptides 1 μmol L-1, 60 min): did not affect | increased amplitude of evoked monosynaptic EPSCs [6, 7]: did not significantly alter | increased frequency of mEPSCs of lamina II neurons [6, 7]: did not affect | PPR of evoked EPSCs ([6]; vehicle-treated rats): had no effect | amplitude of evoked monosynaptic EPSCs [6, 8]: did not significantly alter | frequency of mEPSCs of lamina II neurons [6, 8]: did not affect
